Results published in patent CN116496388A (BRAVOVAX CO LTD; SHANGHAI BOWO BIOTECHNOLOGY CO LTD, dated 2023).

B1: AdC68-Hexon单克隆抗体 (hybridoma-derived, purified from mouse ascites) (antibody, V domains shown)
VH: EVQLVETGGGLVQPKGSLKLSCAVSGLPFNTKAMDWVRQAPGEGLEWVARIRTKSNNYATYYADSVKDRFTISRDDAQSMLYLQMTNLKTEDTAMYYCVRDEASWGHGTLVTVSA
VL: DIVMTQIPLSLPVSLGDQASISCRSSQSLVHSDGNTYLHWYLQKPGQSPKLLIYKVSNRFSGVPDRFSGSGSGTDFTLKISRVEAEDLGVYFCSQSTHFPWTFGGGTKLEIK
notes: Mouse IgG1 (all positive hybridomas were IgG1); also called 抗AdC68-Hexon单克隆抗体; 亲本鼠源抗体
B2: 重组抗AdC68-Hexon小鼠单克隆抗体 (antibody, V domains shown)
VH: B1 VH
VL: DIVMTQIPLSLPVSLGDQASISCRSSQSLVHSDGNTYLHWYLQKPGQSPKLLIYKVSNRFSGVPDRFSGSGSGTDFTLKISRVEAEDLGVYFCSQSTHFPWTFGGGTKLEIKR
notes: domain: 小鼠IgGκ轻链恒定区; Expressed in HEK293, assembled as IgG1k, Protein A purified; also called 重组单克隆抗体; 重组抗AdC68-Hexon鼠单克隆抗体; not shown: mouse IgG1 heavy chain constant region (IgG1CH, GenBank No. NC_000078.7, a genomic entry)

What was measured:
野生型人5型腺病毒的Hexon蛋白 [1] = target: T1, 野生型人5型腺病毒的Hexon蛋白 (人5型腺病毒 (human adenovirus type 5), UniProt P04133 2-952); test: Western blot, reduced virus lysate
T1 construct: also called 野生型人腺病毒5型

野生型人5型腺病毒的Hexon蛋白 [2] = target: T1, 野生型人5型腺病毒的Hexon蛋白; test: cell immunostaining of virus-infected 293A cells

T1 sequence (P04133 2-952): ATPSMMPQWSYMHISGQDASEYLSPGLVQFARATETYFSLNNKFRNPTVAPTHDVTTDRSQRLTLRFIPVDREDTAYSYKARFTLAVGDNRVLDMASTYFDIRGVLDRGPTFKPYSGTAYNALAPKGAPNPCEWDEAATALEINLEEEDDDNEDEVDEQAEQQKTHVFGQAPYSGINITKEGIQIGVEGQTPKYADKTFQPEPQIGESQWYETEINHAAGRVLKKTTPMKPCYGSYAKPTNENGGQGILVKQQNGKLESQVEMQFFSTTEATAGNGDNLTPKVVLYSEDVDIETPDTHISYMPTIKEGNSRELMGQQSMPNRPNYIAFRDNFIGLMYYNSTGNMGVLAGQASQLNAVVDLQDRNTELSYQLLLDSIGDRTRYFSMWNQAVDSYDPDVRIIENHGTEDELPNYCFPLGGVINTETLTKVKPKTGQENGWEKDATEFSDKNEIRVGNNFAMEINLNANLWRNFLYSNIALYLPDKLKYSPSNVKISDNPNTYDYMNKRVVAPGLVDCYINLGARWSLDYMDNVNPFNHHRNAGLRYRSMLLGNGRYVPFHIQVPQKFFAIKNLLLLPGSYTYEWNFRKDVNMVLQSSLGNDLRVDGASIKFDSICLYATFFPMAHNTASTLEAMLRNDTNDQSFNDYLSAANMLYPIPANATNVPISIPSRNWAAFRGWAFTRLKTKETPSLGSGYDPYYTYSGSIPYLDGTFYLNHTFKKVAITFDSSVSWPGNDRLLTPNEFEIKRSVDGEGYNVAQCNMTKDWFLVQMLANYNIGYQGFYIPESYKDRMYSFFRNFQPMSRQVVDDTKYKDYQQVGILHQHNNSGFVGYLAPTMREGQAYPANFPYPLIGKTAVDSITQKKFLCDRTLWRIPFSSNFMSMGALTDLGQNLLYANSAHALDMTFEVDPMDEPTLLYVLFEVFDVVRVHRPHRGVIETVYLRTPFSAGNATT

Binder | binding result (野生型人5型腺病毒的Hexon蛋白 [1]) | binding result (野生型人5型腺病毒的Hexon蛋白 [2])
B1 | no binding (tested: antibody diluted 1:10000) | 
B2 |  | no binding
